Numbering of substitutions follows the chain as printed.
How the values were obtained:
Assay in all cases: flow cytometry on transfected HEK293T cells
[1] = target: T1, CLEC14A^C103S (GFP tag, expressed in HEK293T) (human, UniProt Q86T13 22-490)
T1 construct: not shown: C-terminal GFP tag from vector pEGFP-N1
T1 sequence: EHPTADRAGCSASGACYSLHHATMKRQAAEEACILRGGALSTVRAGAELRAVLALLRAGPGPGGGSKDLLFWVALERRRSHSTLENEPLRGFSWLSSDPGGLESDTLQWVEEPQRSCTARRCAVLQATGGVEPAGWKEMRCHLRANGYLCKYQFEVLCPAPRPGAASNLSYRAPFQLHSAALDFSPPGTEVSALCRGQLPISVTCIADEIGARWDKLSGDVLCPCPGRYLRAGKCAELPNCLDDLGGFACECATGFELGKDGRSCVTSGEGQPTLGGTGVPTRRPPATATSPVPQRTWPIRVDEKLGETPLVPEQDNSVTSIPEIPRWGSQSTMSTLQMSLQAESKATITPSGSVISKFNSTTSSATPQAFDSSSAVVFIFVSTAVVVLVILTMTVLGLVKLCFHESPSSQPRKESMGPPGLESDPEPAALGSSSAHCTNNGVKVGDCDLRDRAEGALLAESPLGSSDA

[2] = target: T2, CLEC14A^C138S (GFP tag, expressed in HEK293T) (human, UniProt Q86T13 22-490)
T2 construct: not shown: C-terminal GFP tag from vector pEGFP-N1
T2 sequence: T1 sequence with S82C, C117S

[3] = target: T3, CD93^C104S (GFP tag, expressed in HEK293T) (human, UniProt Q9NPY3 22-652)
T3 construct: not shown: C-terminal GFP tag from vector pEGFP-N1
T3 sequence: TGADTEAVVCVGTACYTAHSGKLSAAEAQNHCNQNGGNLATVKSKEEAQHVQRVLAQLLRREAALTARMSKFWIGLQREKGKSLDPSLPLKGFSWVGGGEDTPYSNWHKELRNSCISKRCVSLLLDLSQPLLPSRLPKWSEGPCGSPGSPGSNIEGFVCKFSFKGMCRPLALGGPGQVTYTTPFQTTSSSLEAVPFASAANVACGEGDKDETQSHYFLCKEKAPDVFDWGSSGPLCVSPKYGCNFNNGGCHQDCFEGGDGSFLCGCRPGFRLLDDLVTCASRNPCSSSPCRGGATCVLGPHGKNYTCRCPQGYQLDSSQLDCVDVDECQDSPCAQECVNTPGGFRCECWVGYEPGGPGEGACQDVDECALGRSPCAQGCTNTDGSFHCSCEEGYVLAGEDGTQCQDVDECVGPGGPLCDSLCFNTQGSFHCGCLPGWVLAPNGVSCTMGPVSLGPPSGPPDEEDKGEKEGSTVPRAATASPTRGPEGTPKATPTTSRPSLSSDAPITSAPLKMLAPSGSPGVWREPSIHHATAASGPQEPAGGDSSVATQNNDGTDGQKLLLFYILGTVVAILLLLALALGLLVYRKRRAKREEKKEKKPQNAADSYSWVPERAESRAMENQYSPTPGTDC

[4] = target: T4, CD93^C136S (GFP tag, expressed in HEK293T) (human, UniProt Q9NPY3 22-652)
T4 construct: not shown: C-terminal GFP tag from vector pEGFP-N1
T4 sequence: T3 sequence with S83C, C115S

Measured: binding result

B1: biotinylated MMRN2^495-674 (human, expressed in E. coli with a His tag and a BirA tag) (ligand)
chain: QKLYLDLDVIREGQRDATRALEETQVSLDERRQLDGSSLQALQNAVDAVSLAVDAHKAEGERARAATSRLRSQVQALDDEVGALKAAAAEARHEVRQLHSAFAALLEDALRHEAVLAALFGEEVLEEMSEQTPGPLPLSYEQIRVALQDAASGLQEQALGWDELAARVTALEQASEPPRP
modifications: biotin on the BirA tag
notes: Used for staining of transfected HEK293T cells in flow cytometry, detected with streptavidin-PE; not shown: BirA tag and His tag (vector pET23a)
no binding (tested: 20 µg/mL): [1] | [2] | [3] | [4]

— US20190185532A1 (UNIVERSITY OF BIRMINGHAM, published 2019)
